± gives the uncertainty stated by the source.
B1: Nuclear receptor subfamily 1 group D member 2, residues 103 to 171; numbered along this chain, Q14995 (parent)
chain: CKVCGDVASGFHYGVHACEGCKGFFRRSIQQNIQYKKCLKNENCSIMRMNRNRCQQCRFKKCLSVGMSR

Variants of: B1
Assay: abundance fitness (aPCA) (normalised: wild type 0, dead -1); higher = more abundant; growth selection in yeast, the domain comes from the species named
Conditions: Homo sapiens

Variant | abundance fitness
CKVCGDVASGFHYGVHACEGCKGFFRRSIQQNIQYKKCLKNENCSIMRMNRNRNQQCRFKKCLSVGMSR [C54N] | -0.722 ± 0.38
CKVCGDVASGFHYGVHACEGCKGFFRRSIQQNIQYKKCLKNENCSIMRMNRNRIQQCRFKKCLSVGMSR [C54I] | -0.903 ± 0.28
CKVCGDVASGFHYGVHACEGCKGFFRRSIQQNIQYKKCLKNENCSIMRMNRNRTQQCRFKKCLSVGMSR [C54T] | -0.717 ± 0.12
CKVCGDVASGFHYGVHACEGCKGFFRRSIQQNIQYKKCLKNENCSIMRMNRNRFQQCRFKKCLSVGMSR [C54F] | -0.946 ± 0.19
CKVCGDVASGFHYGVHACEGCKGFFRRSIQQNIQYKKCLKNENCSIMRMNRNREQQCRFKKCLSVGMSR [C54E] | -0.77 ± 0.13
CKVCGDVASGFHYGVHACEGCKGFFRRSIQQNIQYKKCLKNENCSIMRMNRNRKQQCRFKKCLSVGMSR [C54K] | -0.134 ± 0.17
CKVCGDVASGFHYGVHACEGCKGFFRRSIQQNIQYKKCLKNENCSIMRMNRNRMQQCRFKKCLSVGMSR [C54M] | -0.618 ± 0.14
CKVCGDVASGFHYGVHACEGCKGFFRRSIQQNIQYKKCLKNENCSIMRMNRNRDQQCRFKKCLSVGMSR [C54D] | -0.749 ± 0.23
CKVCGDVASGFHYGVHACEGCKGFFRRSIQQNIQYKKCLKNENCSIMRMNRNRPQQCRFKKCLSVGMSR [C54P] | -0.606 ± 0.21
CKVCGDVASGFHYGVHACEGCKGFFRRSIQQNIQYKKCLKNENCSIMRMNRNRQQQCRFKKCLSVGMSR [C54Q] | -0.922 ± 0.21
CKVCGDVASGFHYGVHACEGCKGFFRRSIQQNIQYKKCLKNENCSIMRMNRNRYQQCRFKKCLSVGMSR [C54Y] | -0.576 ± 0.16
CKVCGDVASGFHYGVHACEGCKGFFRRSIQQNIQYKKCLKNENCSIMRMNRNRSQQCRFKKCLSVGMSR [C54S] | -0.688 ± 0.083
CKVCGDVASGFHYGVHACEGCKGFFRRSIQQNIQYKKCLKNENCSIMRMNRNRWQQCRFKKCLSVGMSR [C54W] | -1.09 ± 0.22
CKVCGDVASGFHYGVHACEGCKGFFRRSIQQNIQYKKCLKNENCSIMRMNRNRRQQCRFKKCLSVGMSR [C54R] | -0.668 ± 0.079
CKVCGDVASGFHYGVHACEGCKGFFRRSIQQNIQYKKCLKNENCSIMRMNRNRLQQCRFKKCLSVGMSR [C54L] | -0.749 ± 0.087
CKVCGDVASGFHYGVHACEGCKGFFRRSIQQNIQYKKCLKNENCSIMRMNRNRAQQCRFKKCLSVGMSR [C54A] | -0.552 ± 0.095
CKVCGDVASGFHYGVHACEGCKGFFRRSIQQNIQYKKCLKNENCSIMRMNRNRGQQCRFKKCLSVGMSR [C54G] | -0.847 ± 0.1
CKVCGDVASGFHYGVHACEGCKGFFRRSIQQNIQYKKCLKNENCSIMRMNRMRCQQCRFKKCLSVGMSR [N52M] | -0.419 ± 0.23
CKVCGDVASGFHYGVHACEGCKGFFRRSIQQNIQYKKCLKNENCSIMRMNRPRCQQCRFKKCLSVGMSR [N52P] | -0.698 ± 0.46
CKVCGDVASGFHYGVHACEGCKGFFRRSIQQNIQYKKCLKNENCSIMRMNRSRCQQCRFKKCLSVGMSR [N52S] | -0.395 ± 0.46
CKVCGDVASGFHYGVHACEGCKGFFRRSIQQNIQYKKCLKNENCSIMRMNRERCQQCRFKKCLSVGMSR [N52E] | 0.139 ± 0.26
CKVCGDVASGFHYGVHACEGCKGFFRRSIQQNIQYKKCLKNENCSIMRMNRIRCQQCRFKKCLSVGMSR [N52I] | -0.325 ± 0.29
CKVCGDVASGFHYGVHACEGCKGFFRRSIQQNIQYKKCLKNENCSIMRMNRVRCQQCRFKKCLSVGMSR [N52V] | -0.532 ± 0.34
CKVCGDVASGFHYGVHACEGCKGFFRRSIQQNIQYKKCLKNENCSIMRMNRLRCQQCRFKKCLSVGMSR [N52L] | -0.14 ± 0.18
CKVCGDVASGFHYGVHACEGCKGFFRRSIQQNIQYKKCLKNENCSIMRMNRRRCQQCRFKKCLSVGMSR [N52R] | -0.805 ± 0.28
CKVCGDVASGFHYGVHACEGCKGFFRRSIQQNIQYKKCLKNENCSIMRMNRARCQQCRFKKCLSVGMSR [N52A] | 0.394 ± 0.25

Variant | abundance fitness
CKVCGDVASGFHYGVHACEGCKGFFRRSIQQNIQYKKCLKNENCSIMRMNRWRCQQCRFKKCLSVGMSR [N52W] | -0.706 ± 0.4
CKVCGDVASGFHYGVHACEGCKGFFRRSIQQNIQYKKCLKNENCSIMRMNRFRCQQCRFKKCLSVGMSR [N52F] | -0.352 ± 0.33
CKVCGDVASGFHYGVHACEGCKGFFRRSIQQNIQYKKCLKNENCSIMRMNRTRCQQCRFKKCLSVGMSR [N52T] | -0.756 ± 0.44
CKVCGDVASGFHYGVHACEGCKGFFRRSIQQNIQYKKCLKNENCSIMRMNKNRCQQCRFKKCLSVGMSR [R51K] | 0.044 ± 0.18
CKVCGDVASGFHYGVHACEGCKGFFRRSIQQNIQYKKCLKNENCSIMRMNVNRCQQCRFKKCLSVGMSR [R51V] | 0.026 ± 0.14
CKVCGDVASGFHYGVHACEGCKGFFRRSIQQNIQYKKCLKNENCSIMRMNENRCQQCRFKKCLSVGMSR [R51E] | -0.091 ± 0.36
CKVCGDVASGFHYGVHACEGCKGFFRRSIQQNIQYKKCLKNENCSIMRMNQNRCQQCRFKKCLSVGMSR [R51Q] | -0.063 ± 0.23
CKVCGDVASGFHYGVHACEGCKGFFRRSIQQNIQYKKCLKNENCSIMRMNWNRCQQCRFKKCLSVGMSR [R51W] | -0.077 ± 0.26
CKVCGDVASGFHYGVHACEGCKGFFRRSIQQNIQYKKCLKNENCSIMRMNPNRCQQCRFKKCLSVGMSR [R51P] | 0.216 ± 0.16
CKVCGDVASGFHYGVHACEGCKGFFRRSIQQNIQYKKCLKNENCSIMRMNMNRCQQCRFKKCLSVGMSR [R51M] | -0.328 ± 0.45
CKVCGDVASGFHYGVHACEGCKGFFRRSIQQNIQYKKCLKNENCSIMRMNINRCQQCRFKKCLSVGMSR [R51I] | -0.417 ± 0.39
CKVCGDVASGFHYGVHACEGCKGFFRRSIQQNIQYKKCLKNENCSIMRMNYNRCQQCRFKKCLSVGMSR [R51Y] | -0.077 ± 0.21
CKVCGDVASGFHYGVHACEGCKGFFRRSIQQNIQYKKCLKNENCSIMRMNGNRCQQCRFKKCLSVGMSR [R51G] | -0.001 ± 0.15
CKVCGDVASGFHYGVHACEGCKGFFRRSIQQNIQYKKCLKNENCSIMRMNSNRCQQCRFKKCLSVGMSR [R51S] | -0.118 ± 0.12
CKVCGDVASGFHYGVHACEGCKGFFRRSIQQNIQYKKCLKNENCSIMRMNANRCQQCRFKKCLSVGMSR [R51A] | -0.165 ± 0.12
CKVCGDVASGFHYGVHACEGCKGFFRRSIQQNIQYKKCLKNENCSIMRMNTNRCQQCRFKKCLSVGMSR [R51T] | -0.214 ± 0.41
CKVCGDVASGFHYGVHACEGCKGFFRRSIQQNIQYKKCLKNENCSIMRMNLNRCQQCRFKKCLSVGMSR [R51L] | -0.059 ± 0.11
CKVCGDVASGFHYGVHACEGCKGFFRRSIQQNIQYKKCLKNENCSIMRMNRNRCCQCRFKKCLSVGMSR [Q55C] | -0.324 ± 0.22
CKVCGDVASGFHYGVHACEGCKGFFRRSIQQNIQYKKCLKNENCSIMRMNRNRCNQCRFKKCLSVGMSR [Q55N] | -0.265 ± 0.18
CKVCGDVASGFHYGVHACEGCKGFFRRSIQQNIQYKKCLKNENCSIMRMNRNRCKQCRFKKCLSVGMSR [Q55K] | -0.202 ± 0.13
CKVCGDVASGFHYGVHACEGCKGFFRRSIQQNIQYKKCLKNENCSIMRMNRNRCIQCRFKKCLSVGMSR [Q55I] | -0.611 ± 0.19
CKVCGDVASGFHYGVHACEGCKGFFRRSIQQNIQYKKCLKNENCSIMRMNRNRCMQCRFKKCLSVGMSR [Q55M] | -0.53 ± 0.16
CKVCGDVASGFHYGVHACEGCKGFFRRSIQQNIQYKKCLKNENCSIMRMNRNRCEQCRFKKCLSVGMSR [Q55E] | 0.251 ± 0.1
CKVCGDVASGFHYGVHACEGCKGFFRRSIQQNIQYKKCLKNENCSIMRMNRNRCPQCRFKKCLSVGMSR [Q55P] | 0.027 ± 0.093
CKVCGDVASGFHYGVHACEGCKGFFRRSIQQNIQYKKCLKNENCSIMRMNRNRCVQCRFKKCLSVGMSR [Q55V] | -0.425 ± 0.13
CKVCGDVASGFHYGVHACEGCKGFFRRSIQQNIQYKKCLKNENCSIMRMNRNRCYQCRFKKCLSVGMSR [Q55Y] | -0.08 ± 0.17

Variant | abundance fitness
CKVCGDVASGFHYGVHACEGCKGFFRRSIQQNIQYKKCLKNENCSIMRMNRNRCLQCRFKKCLSVGMSR [Q55L] | -0.006 ± 0.061
CKVCGDVASGFHYGVHACEGCKGFFRRSIQQNIQYKKCLKNENCSIMRMNRNRCAQCRFKKCLSVGMSR [Q55A] | 0.099 ± 0.077
CKVCGDVASGFHYGVHACEGCKGFFRRSIQQNIQYKKCLKNENCSIMRMNRNRCGQCRFKKCLSVGMSR [Q55G] | 0.088 ± 0.08
CKVCGDVASGFHYGVHACEGCKGFFRRSIQQNIQYKKCLKNENCSIMRMNRNRCRQCRFKKCLSVGMSR [Q55R] | -0.418 ± 0.084
CKVCGDVASGFHYGVHACEGCKGFFRRSIQQNIQYKKCLKNENCSIMRMNRNRCSQCRFKKCLSVGMSR [Q55S] | -0.115 ± 0.074
CKVCGDVASGFHYGVHACEGCKGFFRRSIQQNIQYKKCLKNENCSIMRMNRNACQQCRFKKCLSVGMSR [R53A] | 0.248 ± 0.058
CKVCGDVASGFHYGVHACEGCKGFFRRSIQQNIQYKKCLKNENCSIMRMNRNPCQQCRFKKCLSVGMSR [R53P] | 0.142 ± 0.074
CKVCGDVASGFHYGVHACEGCKGFFRRSIQQNIQYKKCLKNENCSIMRMNRNWCQQCRFKKCLSVGMSR [R53W] | 0.14 ± 0.068
CKVCGDVASGFHYGVHACEGCKGFFRRSIQQNIQYKKCLKNENCSIMRMNRNECQQCRFKKCLSVGMSR [R53E] | 0.412 ± 0.085
CKVCGDVASGFHYGVHACEGCKGFFRRSIQQNIQYKKCLKNENCSIMRMNRNGCQQCRFKKCLSVGMSR [R53G] | 0.103 ± 0.052
CKVCGDVASGFHYGVHACEGCKGFFRRSIQQNIQYKKCLKNENCSIMRMNRNFCQQCRFKKCLSVGMSR [R53F] | 0.257 ± 0.2
CKVCGDVASGFHYGVHACEGCKGFFRRSIQQNIQYKKCLKNENCSIMRMNRNHCQQCRFKKCLSVGMSR [R53H] | 0.029 ± 0.2
CKVCGDVASGFHYGVHACEGCKGFFRRSIQQNIQYKKCLKNENCSIMRMNRNQCQQCRFKKCLSVGMSR [R53Q] | 0.364 ± 0.077
CKVCGDVASGFHYGVHACEGCKGFFRRSIQQNIQYKKCLKNENCSIMRMNRNCCQQCRFKKCLSVGMSR [R53C] | 0.3 ± 0.082
CKVCGDVASGFHYGVHACEGCKGFFRRSIQQNIQYKKCLKNENCSIMRMNRNKCQQCRFKKCLSVGMSR [R53K] | 0.028 ± 0.097
CKVCGDVASGFHYGVHACEGCKGFFRRSIQQNIQYKKCLKNENCSIMRMNRNVCQQCRFKKCLSVGMSR [R53V] | 0.186 ± 0.063
CKVCGDVASGFHYGVHACEGCKGFFRRSIQQNIQYKKCLKNENCSIMRMNRNDCQQCRFKKCLSVGMSR [R53D] | 0.318 ± 0.12
CKVCGDVASGFHYGVHACEGCKGFFRRSIQQNIQYKKCLKNENCSIMRMNRNNCQQCRFKKCLSVGMSR [R53N] | 0.332 ± 0.15
CKVCGDVASGFHYGVHACEGCKGFFRRSIQQNIQYKKCLKNENCSIMRMNRNTCQQCRFKKCLSVGMSR [R53T] | 0.092 ± 0.08
CKVCGDVASGFHYGVHACEGCKGFFRRSIQQNIQYKKCLKNENCSIMRMNRNLCQQCRFKKCLSVGMSR [R53L] | 0.228 ± 0.061
CKVCGDVASGFHYGVHACEGCKGFFRRSIQQNIQYKKCLKNENCSIMRMNRNMCQQCRFKKCLSVGMSR [R53M] | 0.098 ± 0.086
CKVCGDVASGFHYGVHACEGCKGFFRRSIQQNIQYKKCLKNENCSIMRMVRNRCQQCRFKKCLSVGMSR [N50V] | -0.306 ± 0.1
CKVCGDVASGFHYGVHACEGCKGFFRRSIQQNIQYKKCLKNENCSIMRMNRNRCQFCRFKKCLSVGMSR [Q56F] | -0.006 ± 0.24
CKVCGDVASGFHYGVHACEGCKGFFRRSIQQNIQYKKCLKNENCSIMRMNRNRCQDCRFKKCLSVGMSR [Q56D] | 0.397 ± 0.14
CKVCGDVASGFHYGVHACEGCKGFFRRSIQQNIQYKKCLKNENCSIMRMNRNRCQECRFKKCLSVGMSR [Q56E] | 0.1 ± 0.12
CKVCGDVASGFHYGVHACEGCKGFFRRSIQQNIQYKKCLKNENCSIMRMNRNRCQCCRFKKCLSVGMSR [Q56C] | -0.391 ± 0.23

— the Human Domainome abundance scans (Beltran et al. 2025)
